Tests used:
[1] = biological target: T1, human GPRC5D (human, UniProt Q9NZD1 1-345); test: flow cytometry on NCI-H929 cells, assay replicate 2
T1 construct: also called G protein-coupled receptor class C group 5 member D; hu GPCR5D
Method: (§1) Cells were re-suspended in PBS at 0.5 Mio cells per ml. Next, 0.05 Mio cells were plated per well of a round-bottom 96-well-plate, centrifuged and supernatants were discarded. Cells were stained with zombie aqua viability stain (BioLegend #423102, pre-diluted 1:400), containing Fc blocking (BioLegend #422302, prediluted 1:400) for 20 minutes in a total volume of 50 ul per well. […] Assay plates were centrifuged and supernatants were discarded.
(§2) Thereafter, cells were resuspended by smooth vortexing and incubated for another 30 min at 4° C. in a total of 25 μl per well, containing 500 nM of the secondary antibody (aPGLALA mulG2b Alexa 647, produced inhouse) in FACS buffer. Cells were washed once and analyzed on a BD flow cytometer, equipped with FACS Diva. Binding curves and EC50 values were obtained using GraphPadPrism6. The EC50 values of assay replicate 1 correspond to the graphs shown in FIG. 25A, FIG. 25B and FIG. 25C. The EC50 values of assay replicate 2 correspond to the graphs shown in FIG. 25D, FIG. 25E and FIG. 25F. The EC50 values of assay replicate 3 correspond to the graphs shown in FIG. 25G, FIG. 25H and FIG. 25I.

[2] = biological target: T1, human GPRC5D; test: flow cytometry on NCI-H929 cells; paragraph 550 says these values were falsely calculated by a factor of 10 (too low)
Method: (§3) To measure the binding to GPRC5D, we performed a flow cytometry-based binding assay on reported multiple myeloma cell lines (Lombardi et al., Molecular characterization of human multiple myeloma cell lines by integrative genomics: insights into the biology of the disease; Genes Chromosomes Cancer. 2007 March; 46(3):226-38). The cell line NCI-H929 (ATCC® CRL-9068) was cultured in RPMI 1640 with Glutamax medium (Gibco) supplemented with 10% FBS, 1× Penicillin/Streptomycin (Gibco), 1× Sodium Pyruvate (Gibco) and 50 μM beta-Mercaptoethanol (Gibco). Jurkat-NFAT reporter cells (a CD3-expressing human acute lymphatic leukemia reporter cell line with a NFAT promoter, GloResponse Jurkat NFAT-RE-luc2P, Promega #CS176501) were cultured in RPMI 1640, containing 2 g/l Glucose, 2 g/l NaHCO₃, 10% FCS, 25 mM HEPES, 2 mM L-Glutamine, 1×NEAA, 1× Sodium-pyruvate and 200 μg/ml Hygromycin B.
(§4) Flow cytometry acquisition was performed on a custom-designed BD Biosciences Fortessa and analyzed using BD Diva. EC50 values were calculated, using GraphPad Prism software.

[3] = biological target: T1, human GPRC5D; test: cell-based or functional assay
[4] = biological target: T1, human GPRC5D; test: flow cytometry on RPMI-8226 cells, assay replicate 2
Method: as §1, §2

[5] = biological target: T1, human GPRC5D; test: flow cytometry on OPM-2 cells, assay replicate 1
Method: as §1, §2

[6] = biological target: T1, human GPRC5D; test: cell-based or functional assay; remark: listed apart in the source
[7] = biological target: T2, human CD3 (human, UniProt P07766 23-207); test: flow cytometry on Jurkat-NFAT cells; paragraph 550 says these values were falsely calculated by a factor of 10 (too low)
T2 construct: Expressed on Jurkat-NFAT reporter cells as part of the TCR/CD3 complex; also called hCD3; CD3 epsilon
T2 sequence (P07766 23-207 limits assumed): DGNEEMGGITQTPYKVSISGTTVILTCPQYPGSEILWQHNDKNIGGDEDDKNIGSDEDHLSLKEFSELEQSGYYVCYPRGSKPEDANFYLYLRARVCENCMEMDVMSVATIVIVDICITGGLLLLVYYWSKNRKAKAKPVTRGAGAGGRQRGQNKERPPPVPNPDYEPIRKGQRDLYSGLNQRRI
Method: as §3, §4

[8] = biological target: T1, human GPRC5D; test: flow cytometry on OPM-2 cells, assay replicate 3
Method: as §1, §2

[9] = biological target: T1, human GPRC5D; test: flow cytometry on NCI-H929 cells, assay replicate 3
Method: as §1, §2

[10] = biological target: T1, human GPRC5D; test: flow cytometry on RPMI-8226 cells, assay replicate 1
Method: as §1, §2

[11] = biological target: T1, human GPRC5D; test: flow cytometry on NCI-H929 cells, assay replicate 1
Method: as §1, §2

[12] = biological target: T1, human GPRC5D; test: flow cytometry on RPMI-8226 cells, assay replicate 3
Method: as §1, §2

[13] = biological target: T1, human GPRC5D; test: cell-based or functional assay; remark: listed apart in the source
[14] = biological target: T1, human GPRC5D; test: cell-based or functional assay; remark: listed apart in the source
[15] = biological target: T1, human GPRC5D; test: flow cytometry on OPM-2 cells, assay replicate 2
Method: as §1, §2

T1 sequence (Q9NZD1 whole entry): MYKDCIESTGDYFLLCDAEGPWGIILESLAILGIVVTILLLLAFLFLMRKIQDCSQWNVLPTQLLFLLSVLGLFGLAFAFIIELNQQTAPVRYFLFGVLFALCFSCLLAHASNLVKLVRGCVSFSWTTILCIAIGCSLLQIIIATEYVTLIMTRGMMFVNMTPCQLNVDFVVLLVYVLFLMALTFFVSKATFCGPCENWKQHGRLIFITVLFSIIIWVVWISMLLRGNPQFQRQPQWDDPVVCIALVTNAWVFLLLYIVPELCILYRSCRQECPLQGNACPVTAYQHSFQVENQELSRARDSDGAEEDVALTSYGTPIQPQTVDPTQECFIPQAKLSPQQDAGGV

B1: 5E11(VH1c + VL2b)-C122-TCB (P1AE6625) (bispecific antibody, human IgG1, kappa, L234A L235A)
light 1: EIVLTQSPGTLSLSPGERATLSCRASQSVSISGINLMNWYQQKPGQQPKLLIYHASILASGIPDRFSGSGSGTDFTLTISRLEPEDFAVYYCQQTRESPLTFGQGTRLEIKRTVAAPSVFIFPPSDRKLKSGTASVVCLLNNFYPREAKVQWKVDNALQSGNSQESVTEQDSKDSTYSLSSTLTLSKADYEKHKVYACEVTHQGLSSPVTKSFNRGEC
light 2: EVQLLESGGGLVQPGGSLRLSCAASGFQFSSYAMNWVRQAPGKGLEWVSRIRSKYNNYATYYADSVKGRFTISRDDSKNTLYLQMNSLRAEDTAVYYCVRHTTFPSSYVSYYGYWGQGTLVTVSSASVAAPSVFIFPPSDEQLKSGTASVVCLLNNFYPREAKVQWKVDNALQSGNSQESVTEQDSKDSTYSLSSTLTLSKADYEKHKVYACEVTHQGLSSPVTKSFNRGEC
heavy 1: EVQLLESGGGLVQPGGSLRLSCAASGFTFSKYAMAWVRQAPGKGLEWVASISTGGVNTYYADSVKGRFTISRDNSKNTLYLQMNSLRAEDTAVYYCATHTGDYFDYWGQGTMVTVSSASTKGPSVFPLAPSSKSTSGGTAALGCLVEDYFPEPVTVSWNSGALTSGVHTFPAVLQSSGLYSLSSVVTVPSSSLGTQTYICNVNHKPSNTKVDEKVEPKSCDKTHTCPPCPAPEAAGGPSVFLFPPKPKDTLMISRTPEVTCVVVDVSHEDPEVKFNWYVDGVEVHNAKTKPREEQYNSTYRVVSVLTVLHQDWLNGKEYKCKVSNKALGAPIEKTISKAKGQPREPQVCTLPPSRDELTKNQVSLSCAVKGFYPSDIAVEWESNGQPENNYKTTPPVLDSDGSFFLVSKLTVDKSRWQQGNVFSCSVMHEALHNHYTQKSLSLSPGK
heavy 2: not shown
notes: 2+1 TCB: LC1 (anti-GPRC5D), LC2 (anti-CD3 crossed), HC1 Fc hole, HC2 Fc knob
- EC50 [1]: ~0.123 µM
- EC50 [2]: 0.00115 µM
- AUC, TCB-mediated tumor cell lysis, AMO-1 [3]: 8.01e+07
- AUC, TCB-mediated tumor cell lysis, IM-9 [3]: 9.27e+06
- AUC, TCB-mediated tumor cell lysis, LP-1 [3]: 1.54e+07
- AUC, TCB-mediated tumor cell lysis, NCI-H929 [3]: 1.79e+07
- EC50 [4]: 0.0204 µM
- EC50 [5]: 0.0345 µM
- EC50 (pM), activation of autologous T-cells (CD69 on CD8 T cells) with a primary MM sample [6]: 14.8 pM
- EC50 [7]: 0.0115 µM
- EC50 [8]: 0.0542 µM
- EC50 [9]: ~0.158 µM
- EC50 [10]: 0.0268 µM
- EC50 [11]: 0.0758 µM
- EC50 [12]: 0.055 µM
- EC50 (pM), TCB-mediated tumor cell lysis, AMO-1 [13]: 8.3 pM
- EC50 (pM), TCB-mediated tumor cell lysis, IM-9 [13]: 267 pM
- EC50 (pM), TCB-mediated tumor cell lysis, LP-1 [13]: 7.99 pM
- EC50 (pM), TCB-mediated tumor cell lysis, NCI-H929 [13]: 0.597 pM
- AUC, activation of Jurkat-NFAT reporter cells in presence of RPMI-8226 cells [14]: 572000
- EC50 (pM), activation of Jurkat-NFAT reporter cells in presence of RPMI-8226 cells [14]: 40 pM
- EC50 [15]: 0.0755 µM
